Reference: US20190077860A1 (EISAI R AND D MANAGEMENT, published 2019)

How the values were obtained:
[1] = molecular target: T1, mouse EphA4 extracellular region-SEAP-His protein (mouse); test: SPR (Biacore T200), mouse EphA4 extracellular region-SEAP-His captured on an anti-His antibody CM5 chip, antibody as analyte at 0.6-50 nM, 1:1 fit (run alongside F(ab')2)
Protocol: (§1) Next, the binding affinity of antibody A-Fab and antibody A-F(ab′)₂ for mouse and human EphA4 was determined by surface plasmon resonance (SPR) using Biacore T200 (GE Healthcare). Antibody A obtained in Example 1 was used as a control for the comparison of each fragment. First, an anti-His tag antibody was immobilized on sensor chip CM5. The immobilization of the anti-His tag antibody on sensor chip CM5 was performed by the amine coupling method using N-hydroxysuccinimide (NHS) and N-ethyl-N′-(3-dimethylaminopropyl)carbodiimide hydrochloride (EDC). Ethanolamine was used in blocking (the sensor chip and the reagents for immobilization were all manufactured by GE Healthcare). The antibody was diluted with a buffer solution for immobilization (10 mM sodium acetate, pH 4.5) into 3 μg/mL and immobilized on the sensor chip according to the protocol attached to Biacore T200.
(§2) Mouse or human EphA4 extracellular region-SEAP-His protein was diluted with a running buffer solution HBS-EP (GE Healthcare, BR-1001-88), injected onto a flow cell for 120 seconds, and captured (amount of the protein captured: approximately 10 to 20 RU). Subsequently, antibody A (50, 16.7, 5.6, 1.9, 0.6, and 0 nM), antibody A-Fab (500, 166.7, 55.6, 18.5, 6.2, and 0 nM), or antibody A-F(ab′)₂ (50, 16.7, 5.6, 1.9, 0.6, and 0 nM) serially diluted using HBS-EP was added to the sensor chip for 120 seconds. Binding reaction curves were sequentially observed at the time of the addition (association phase, for 120 sec) and after the completion of the addition (dissociation phase, for 900 sec). After the completion of each observation, the sensor chip was regenerated by the addition of 3 M MgCl₂ (Wako Pure Chemical Industries) (for 30 sec). The obtained binding reaction curves were subjected to fitting analysis with 1:1 binding models using software BIA evaluation attached to the system to calculate the binding affinity (KD=kd/ka) for mouse and human EphA4.

[2] = molecular target: T2, human EphA4 extracellular region-SEAP-His protein (human, UniProt P54764 20-547); test: SPR (Biacore T200), human EphA4 extracellular region-SEAP-His captured on an anti-His antibody CM5 chip, antibody as analyte at 0.6-50 nM, 1:1 fit
T2 construct: also called hEphA4-SEAP-His
Protocol: as §1, §2

[3] = molecular target: T2, human EphA4 extracellular …; test: SPR (Biacore A100), antibody captured, EphA4-SEAP-His analyte
Protocol: (§3) The binding affinity of antibody A obtained in Example 1 for mouse and human EphA4 was determined by surface plasmon resonance (SPR) using Biacore A100 (GE Healthcare). First, a rat anti-mouse IgG₁ antibody produced with a conventional procedure by immunizing rat with a mouse IgG₁ antibody was immobilized on sensor chip CM5. The immobilization of the rat anti-mouse IgG1 antibody on sensor chip CM5 was performed by the amine coupling method using N-hydroxysuccinimide (NHS) and N-ethyl-N′-(3-dimethylaminopropyl)carbodiimide hydrochloride (EDC). Ethanolamine was used in blocking (the sensor chip and the reagents for immobilization were all manufactured by GE Healthcare). The antibody was diluted with a buffer solution for immobilization (10 mM sodium acetate, pH 4.5) into 1 to 2 μg/mL and immobilized on the sensor chip according to the protocol attached to Biacore A100. Antibody A was diluted with a running buffer solution HBS-EP (GE Healthcare, BR-1001-88), injected onto a flow cell for 120 seconds, and captured (amount of the antibody captured: approximately 70 to 100 RU). Subsequently, mouse or human EphA4 extracellular region-SEAP-His serially diluted in the range of 50, 25, 12.5, 6.3, 3.1, 1.6, 0.8, and 0 nM using HBS-EP was added to the sensor chip for 120 seconds. […]

[4] = molecular target: T1, mouse EphA4 extracellular …; test: as above
Protocol: as §3

[5] = molecular target: T1, mouse EphA4 extracellular …; test: competition ELISA, mouse ligands
Protocol: (§4) Antibody A obtained in Example 1 was evaluated for its inhibitory activity against the binding between mouse EphA4 and its mouse ligand according to the following steps. Each well of a 96-well plate (Nunc) was coated with an anti-alkaline phosphatase antibody (Thermo Fisher Scientific). After incubation overnight at 4° C., each well was blocked with 1% BlockAce (DS Pharma Biomedical) at room temperature for 1 hour. After washing with 0.05% Tween 20/PBS (Thermo Fisher Scientific) three times, the mouse EphA4 extracellular region-SEAP-His protein obtained by the method of Example 1 was added (final concentration: 10 nM) to each well and incubated at room temperature for 1 hour. After washing three times, ligands and serially diluted antibody A (0, 0.001, 0.003, 0.01, 0.03, 0.1, 0.3, 1,3, 10, 30, 100, 300, and 1000 nM) or a known EphA4 inhibitor KYL peptide ([…], 0, 0.003, 0.01, 0.03, 0.1, 0.3, 1, 3, 10, 30, and 100 μM, its synthesis was outsourced to Hokkaido System Science) or compound 1 (0, 0.03, 0.1, 0.3, 1,3, 10, 30, 100, 300, and 1000 μM, Formula 1, Matrix Scientific) were added to each well. The ligands used were mouse Ephrin A1-Fc chimera (R&D Systems, final concentration: 20 nM) and mouse Ephrin B2-Fc chimera (R&D Systems, final concentration: 0.6 nM). […] The absorbance at 450 nm was read using a microplate reader (Molecular Devices).

[6] = molecular target: T1, mouse EphA4 extracellular …; test: competition ELISA, competitor mouse Ephrin A1-Fc
Protocol: as §4

T1 sequence (chain, as listed by the source limits assumed): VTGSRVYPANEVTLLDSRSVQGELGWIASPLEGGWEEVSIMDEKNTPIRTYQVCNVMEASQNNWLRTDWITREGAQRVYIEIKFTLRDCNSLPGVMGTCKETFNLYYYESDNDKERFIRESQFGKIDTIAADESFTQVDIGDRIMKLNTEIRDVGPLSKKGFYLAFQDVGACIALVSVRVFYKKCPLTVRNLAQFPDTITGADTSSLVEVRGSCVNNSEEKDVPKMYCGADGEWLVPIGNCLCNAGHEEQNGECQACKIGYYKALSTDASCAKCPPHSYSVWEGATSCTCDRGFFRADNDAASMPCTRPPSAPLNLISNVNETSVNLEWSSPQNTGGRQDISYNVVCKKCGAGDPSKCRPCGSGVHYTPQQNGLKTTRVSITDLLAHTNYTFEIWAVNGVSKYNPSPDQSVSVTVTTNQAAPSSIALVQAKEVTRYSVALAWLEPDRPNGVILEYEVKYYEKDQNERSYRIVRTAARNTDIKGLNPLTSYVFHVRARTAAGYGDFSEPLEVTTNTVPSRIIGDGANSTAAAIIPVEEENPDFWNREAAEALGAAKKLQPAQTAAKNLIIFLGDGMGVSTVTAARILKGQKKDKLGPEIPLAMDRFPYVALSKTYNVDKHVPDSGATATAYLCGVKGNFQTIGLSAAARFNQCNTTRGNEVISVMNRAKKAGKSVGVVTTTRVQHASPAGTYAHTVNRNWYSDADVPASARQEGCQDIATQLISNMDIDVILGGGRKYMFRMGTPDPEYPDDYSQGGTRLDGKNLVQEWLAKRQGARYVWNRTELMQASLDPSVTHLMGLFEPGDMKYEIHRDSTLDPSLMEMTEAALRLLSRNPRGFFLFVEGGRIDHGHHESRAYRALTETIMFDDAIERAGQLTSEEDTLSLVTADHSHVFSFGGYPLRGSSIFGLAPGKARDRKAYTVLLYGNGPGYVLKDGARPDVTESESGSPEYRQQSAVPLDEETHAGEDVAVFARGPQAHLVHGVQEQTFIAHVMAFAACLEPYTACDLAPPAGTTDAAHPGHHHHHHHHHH
T2 sequence (P54764 20-547): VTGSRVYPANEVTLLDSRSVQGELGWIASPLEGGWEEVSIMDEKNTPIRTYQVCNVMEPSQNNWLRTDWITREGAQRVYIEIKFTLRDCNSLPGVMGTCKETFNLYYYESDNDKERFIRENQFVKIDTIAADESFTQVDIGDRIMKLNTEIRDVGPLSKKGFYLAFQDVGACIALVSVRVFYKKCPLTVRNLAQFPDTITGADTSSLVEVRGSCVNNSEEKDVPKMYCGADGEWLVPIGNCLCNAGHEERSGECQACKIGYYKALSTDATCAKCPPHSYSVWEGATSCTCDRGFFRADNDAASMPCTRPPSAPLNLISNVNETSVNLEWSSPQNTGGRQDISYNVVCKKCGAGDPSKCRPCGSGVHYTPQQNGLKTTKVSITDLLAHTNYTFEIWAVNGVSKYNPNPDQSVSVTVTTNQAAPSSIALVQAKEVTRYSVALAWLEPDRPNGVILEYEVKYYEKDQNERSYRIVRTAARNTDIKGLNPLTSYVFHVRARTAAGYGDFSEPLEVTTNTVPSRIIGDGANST

- Kd [1]: 0.0423 nM
- koff [1]: 0.000288 s⁻¹
- kon [1]: 6.81e+06 M⁻¹ s⁻¹
- Kd [2]: 0.144 nM
- koff [2]: 0.000389 s⁻¹
- kon [2]: 2.7e+06 M⁻¹ s⁻¹
- Kd [3]: 0.661 nM
- Kd [4]: 0.729 nM
- fold activity against KYL peptide [5]: ≥ 1000 fold
- IC50 [6]: ~1.2 nM
B1: antibody A (antibody, mouse IgG1, kappa, V domains shown)
VH: QIQLVQSGPELKKPGETVKISCKASGYTFTDYSMHWVKQAPGKGLKWMGWINTETGEPTYADDFKGRFAFSLETSASTAYLQINNLKNEDTATYFCARIPLYYYGSRYWYFDVWGAGTTVTVSS
VL: DIQMTQSPASLSVSVGETVTITCRASENIYRNLAWYQQKQGKSPQLLVYAATNLADGVPSRFSGSGSGTQYSLKINSLQSEDFGSYYCQHFWGTPWTFGGGTKLEIKR
notes: mouse IgG1 heavy chain, kappa light chain; purified from hybridoma supernatant; also called anti-EphA4 monoclonal antibody; antibody A-IgG
